What is called Kd is the free concentration of one partner at which half of the binding sites on the other are occupied at equilibrium, for simple one-to-one binding. A lower Kd goes with a tighter complex.

Like-named read-outs stand apart in the source and are kept apart here.

Assay [1] concerns the target T1, human proTGFβ1 C4S (human, UniProt P01137 30-390).
T1 construct: Small latent complex without presenting molecule; the cysteine that links to presenting molecules is changed to serine; also called small latent complex proTGFβ1 C4S; latent TGFβ1
As to the kind of experiment: method not described.

Assay [2] concerns the target T2, human LTBP1-proTGFβ1 complex (human, UniProt Q14766 873-1507).
T2 construct: range 873-1507; biotinylated in Octet and MSD-SET; also called hLTBP1-proTGFβ1; hLTBP1
As to the kind of experiment: MSD-SET, solution equilibrium titration. As for the experimental part:
(§1) MSD-SET assays were performed to measure affinities of the antibodies at equilibrium. Briefly, each test antibody was diluted 3-5 fold and samples were mixed with biotinylated antigen in a 48-well dish. The SET samples were equilibrated for 20-24 hours at room temperature. Meanwhile, a capture plate was coated with IgG (20 nM) and incubated overnight at 4° C. or 30 minutes at room temperature, followed by a blocking step with 5% BSA. After the capture plate was washed three times, SET samples were added and incubated for 150 seconds. The plate was washed once to remove unbound complexes. 250 ng/ml SA-Sulfotag was added then washed 3 times. 2× Read Buffer was added, and signals from the labeled bound complexes were read with the use of QuickPlex™ SQ 120 instrument.

The target in assay [3] is T3, human LTBP3-proTGFβ1 complex (human, UniProt Q9NS15 866-1039).
T3 construct: range 866-1039; also called hLTBP3-proTGFβ1; hLTBP3
T3 sequence (Q9NS15 866-1039 limits assumed, chain 1 of 2): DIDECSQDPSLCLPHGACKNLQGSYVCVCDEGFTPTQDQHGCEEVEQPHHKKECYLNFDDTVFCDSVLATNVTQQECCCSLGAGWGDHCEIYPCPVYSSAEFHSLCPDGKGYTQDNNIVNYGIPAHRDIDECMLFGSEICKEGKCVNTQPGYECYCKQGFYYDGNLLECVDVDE
T3 sequence (chain, as listed by the source limits assumed, chain 2 of 2): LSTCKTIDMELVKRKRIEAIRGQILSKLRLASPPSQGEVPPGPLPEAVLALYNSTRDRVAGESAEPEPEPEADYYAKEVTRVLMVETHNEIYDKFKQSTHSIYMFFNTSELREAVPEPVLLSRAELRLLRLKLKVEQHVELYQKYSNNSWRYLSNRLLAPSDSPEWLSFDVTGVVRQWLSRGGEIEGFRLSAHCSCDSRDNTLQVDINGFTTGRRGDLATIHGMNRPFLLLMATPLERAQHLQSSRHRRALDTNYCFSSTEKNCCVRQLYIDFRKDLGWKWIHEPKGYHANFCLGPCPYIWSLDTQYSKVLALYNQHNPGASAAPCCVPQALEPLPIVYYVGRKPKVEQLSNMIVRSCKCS
As to the kind of experiment: MSD-SET, solution equilibrium titration. As for the experimental part: as §1

Assay [4] addresses T4, human GARP-proTGFβ1 complex (human, UniProt Q14392 20-627; P01137 30-390).
T4 construct: also called hGARP-proTGFβ1; hGARP
The experiment in a line: MSD-SET, solution equilibrium titration. On the procedure: as §1

Assay [5] addresses T5, human LRRC33-proTGFβ1 complex (human, UniProt Q86YC3 19-650; P01137 30-390).
T5 construct: also called hLRRC33-proTGFβ1; hLRRC33
The experiment in a line: MSD-SET, solution equilibrium titration. On the procedure: as §1

Assay [6] deals with T2, human LTBP1-proTGFβ1 complex. As to the kind of experiment: MSD-SET, solution equilibrium titration. On the procedure: as §1
(§2) As an example, MSD standard plates (MSD) were coated with a 20 nM solution of monoclonal antibody in PBS for 30 min at room temperature or overnight at 4° C. […] After 20-24 hours of equilibration, the antibody-coated plate was blocked with Blocking Buffer A (MSD) for 30 minutes at room temperature and washed with wash buffer (PBS, 0.1% BSA, 0.05% Tween-20) before adding the equilibrated antibody-antigen complexes to the plate for exactly 2.5 minutes. The plate was washed again with wash buffer before adding 250 ng/ml SULFO-TAG-labeled streptavidin secondary reagent (MSD) in PBS with 0.1% BSA. After washing with wash buffer, plates were read in MSD read buffer (MSD) using the MESO QuickPlex SQ 120 (MSD). The binding data were processed by nonlinear curve fitting in Prism 7 software (Graphpad) to calculate equilibrium binding KD values.
The source holds these as a separate data set.

Assay [7] concerns the target T3, human LTBP3-proTGFβ1 complex. As to the kind of experiment: MSD-SET, solution equilibrium titration. As for the experimental part: as §1, §2
The source holds these as a separate data set.

Assay [8] deals with T4, human GARP-proTGFβ1 complex. As to the kind of experiment: MSD-SET, solution equilibrium titration. On the procedure:
as §1, §2
The source holds these as a separate data set.

Assay [9] addresses T5, human LRRC33-proTGFβ1 complex. The experiment in a line: MSD-SET, solution equilibrium titration. On the procedure: as §1, §2
This is another data set of the same source.

Assay [10] addresses T6, murine LTBP1-proTGFβ1 complex (mouse, UniProt Q8CG19 339-1712; P04202 30-390, limits assumed).
T6 construct: also called mLTBP1-proTGFβ1
The experiment in a line: MSD-SET, solution equilibrium titration. As for the experimental part:
as §1, §2

For assay [11], the target named is T7, murine GARP-proTGFβ1 complex (mouse, UniProt G3XA59 18-628; P04202 30-390).
T7 construct: Soluble murine complex; also called mGARP-proTGFβ1
T7 sequence (G3XA59 18-628, chain 1 of 2): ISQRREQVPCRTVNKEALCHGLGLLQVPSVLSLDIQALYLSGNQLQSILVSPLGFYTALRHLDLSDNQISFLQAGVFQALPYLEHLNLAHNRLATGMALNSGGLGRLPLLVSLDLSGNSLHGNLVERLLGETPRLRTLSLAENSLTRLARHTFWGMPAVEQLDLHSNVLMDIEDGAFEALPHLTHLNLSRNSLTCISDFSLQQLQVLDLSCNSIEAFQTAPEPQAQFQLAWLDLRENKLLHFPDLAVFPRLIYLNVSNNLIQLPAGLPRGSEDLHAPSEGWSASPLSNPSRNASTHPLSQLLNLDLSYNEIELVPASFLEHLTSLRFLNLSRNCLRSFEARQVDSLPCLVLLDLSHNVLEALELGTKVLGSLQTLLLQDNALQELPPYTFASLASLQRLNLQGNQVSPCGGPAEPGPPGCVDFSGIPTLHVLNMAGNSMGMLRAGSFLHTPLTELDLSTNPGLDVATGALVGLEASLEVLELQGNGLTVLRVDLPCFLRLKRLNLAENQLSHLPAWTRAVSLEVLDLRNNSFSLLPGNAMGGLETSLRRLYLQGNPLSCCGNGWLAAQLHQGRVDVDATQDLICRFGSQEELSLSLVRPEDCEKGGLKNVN
T7 sequence (P04202 30-390, chain 2 of 2): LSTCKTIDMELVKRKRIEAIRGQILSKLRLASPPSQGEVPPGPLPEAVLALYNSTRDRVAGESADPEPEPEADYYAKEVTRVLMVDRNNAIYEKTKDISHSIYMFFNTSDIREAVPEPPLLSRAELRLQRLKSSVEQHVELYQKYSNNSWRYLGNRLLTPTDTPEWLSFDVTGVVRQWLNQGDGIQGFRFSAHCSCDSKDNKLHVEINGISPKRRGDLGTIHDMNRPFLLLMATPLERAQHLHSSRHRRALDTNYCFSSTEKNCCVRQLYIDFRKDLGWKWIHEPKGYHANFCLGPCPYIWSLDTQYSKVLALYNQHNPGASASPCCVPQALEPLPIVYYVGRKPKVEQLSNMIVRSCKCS
As to the kind of experiment: MSD-SET, solution equilibrium titration. As for the experimental part:
as §1, §2

Assay [12] addresses T8, murine LRRC33-proTGFβ1 complex (mouse, UniProt Q8BMT4 20-651, limits assumed).
T8 construct: also called mLRRC33-proTGFβ1
As to the kind of experiment: MSD-SET, solution equilibrium titration. On the procedure: as §1, §2

For assay [13], the target named is rat LTBP1-proTGFβ1 complex (rat, UniProt Q00918 339-1712; P17246 30-390). The experiment in a line: MSD-SET, solution equilibrium titration. As for the experimental part:
as §1, §2

Assay [14] addresses rat LRRC33-proTGFβ1 complex (rat, UniProt Q5BK65 25-650; P17246 30-390). The experiment in a line: MSD-SET, solution equilibrium titration. On the procedure: as §1, §2
For assay [15], the target named is T9, cynomolgus LTBP1-proTGFβ1 complex (cynomolgus monkey).
T9 construct: also called Cyno LTBP1-proTGFβ1
As to the kind of experiment: MSD-SET, solution equilibrium titration. On the procedure: as §1, §2

Assay [16] addresses T10, cynomolgus LRRC33-proTGFβ1 complex (cynomolgus monkey, UniProt A0A7N9CII2 32-663).
T10 construct: also called Cyno LRRC33-proTGFβ1
The experiment in a line: MSD-SET, solution equilibrium titration. As for the experimental part: as §1, §2

Assay [17] has as its target T11, human mature TGFβ2 growth factor (human, UniProt P61812 303-414).
T11 construct: mature
T11 sequence (looked up): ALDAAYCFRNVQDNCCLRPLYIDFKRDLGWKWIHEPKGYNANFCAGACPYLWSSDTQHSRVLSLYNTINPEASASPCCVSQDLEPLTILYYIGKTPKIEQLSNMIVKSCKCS
The experiment in a line: in vitro binding assay (BLI protocol at p-1008). On the procedure: (§3) AR2G biosensors were first allowed to hydrate in water offline for at least 10 minutes before initiation of the experiment. Upon initiation of the experiment, AR2G tips were equilibrated in water for 1 minute. Then, the tips were moved into a freshly prepared activation solution (18 parts water, 1 part 400 mM EDC (1-Ethyl-3-[3-dimethylaminopropyl] carbodiimide hydrochloride), and 1 part 200 mM sulfo-NHS (N-hydroxysulfosuccinimide)) for 5 minutes. Recombinant TGFβ protein (10 ug/mL in 10 mM sodium acetate buffer pH 5) was coupled to the activated tips for 3 minutes before quenching with ethanolamine pH 8.5 for 15 minutes. […] Finally, a ten minute dissociation was performed.

Assay [18] addresses T12, human mature TGFβ3 growth factor (human, UniProt P10600 301-412).
T12 construct: mature
T12 sequence (looked up): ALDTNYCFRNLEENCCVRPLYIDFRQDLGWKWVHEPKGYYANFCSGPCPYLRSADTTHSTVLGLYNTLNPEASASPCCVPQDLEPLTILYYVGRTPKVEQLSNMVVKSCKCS
The experiment in a line: in vitro binding assay (BLI protocol at p-1008). As for the experimental part: as §3

T5 sequence (Q86YC3 other isoform, or with tags, fused parts or gaps limits assumed, chain 1 of 2): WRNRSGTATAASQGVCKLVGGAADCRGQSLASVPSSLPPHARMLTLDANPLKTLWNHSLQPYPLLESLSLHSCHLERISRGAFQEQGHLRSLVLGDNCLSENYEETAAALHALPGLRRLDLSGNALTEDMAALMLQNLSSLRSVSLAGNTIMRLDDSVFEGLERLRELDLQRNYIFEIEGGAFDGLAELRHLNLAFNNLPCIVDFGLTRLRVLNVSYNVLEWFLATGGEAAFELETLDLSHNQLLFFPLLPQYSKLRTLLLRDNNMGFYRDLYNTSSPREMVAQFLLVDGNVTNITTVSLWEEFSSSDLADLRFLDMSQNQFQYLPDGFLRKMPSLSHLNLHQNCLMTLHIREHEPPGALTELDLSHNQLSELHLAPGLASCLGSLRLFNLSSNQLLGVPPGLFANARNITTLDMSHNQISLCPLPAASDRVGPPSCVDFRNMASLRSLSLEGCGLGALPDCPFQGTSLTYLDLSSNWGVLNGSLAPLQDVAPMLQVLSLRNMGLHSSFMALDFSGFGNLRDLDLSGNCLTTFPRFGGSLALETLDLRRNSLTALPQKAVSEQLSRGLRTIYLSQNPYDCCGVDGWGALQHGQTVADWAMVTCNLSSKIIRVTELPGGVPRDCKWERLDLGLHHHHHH
T5 sequence (P01137 30-390 limits assumed, chain 2 of 2): as the sequence (chain, as listed by the source limits assumed, chain 2 of 2) above
T4 sequence (Q14392 20-627, chain 1 of 2): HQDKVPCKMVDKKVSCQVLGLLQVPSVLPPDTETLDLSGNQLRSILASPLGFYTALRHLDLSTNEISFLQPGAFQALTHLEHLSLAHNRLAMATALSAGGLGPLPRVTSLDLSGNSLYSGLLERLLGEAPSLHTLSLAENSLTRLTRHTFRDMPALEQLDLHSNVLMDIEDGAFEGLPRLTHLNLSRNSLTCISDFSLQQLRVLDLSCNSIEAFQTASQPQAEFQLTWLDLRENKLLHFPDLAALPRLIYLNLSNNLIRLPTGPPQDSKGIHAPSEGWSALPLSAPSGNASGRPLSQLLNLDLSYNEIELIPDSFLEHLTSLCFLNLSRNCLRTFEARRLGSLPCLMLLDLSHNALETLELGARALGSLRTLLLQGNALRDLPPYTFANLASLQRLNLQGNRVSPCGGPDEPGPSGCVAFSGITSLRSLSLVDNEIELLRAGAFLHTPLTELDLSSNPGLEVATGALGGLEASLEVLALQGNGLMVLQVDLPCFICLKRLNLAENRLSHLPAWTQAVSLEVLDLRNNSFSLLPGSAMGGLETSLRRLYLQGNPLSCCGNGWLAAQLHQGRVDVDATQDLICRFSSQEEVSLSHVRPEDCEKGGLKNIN
T4 sequence (P01137 30-390, chain 2 of 2): as the sequence (chain, as listed by the source limits assumed, chain 2 of 2) above
T2 sequence (Q14766 873-1507 limits assumed, chain 1 of 2): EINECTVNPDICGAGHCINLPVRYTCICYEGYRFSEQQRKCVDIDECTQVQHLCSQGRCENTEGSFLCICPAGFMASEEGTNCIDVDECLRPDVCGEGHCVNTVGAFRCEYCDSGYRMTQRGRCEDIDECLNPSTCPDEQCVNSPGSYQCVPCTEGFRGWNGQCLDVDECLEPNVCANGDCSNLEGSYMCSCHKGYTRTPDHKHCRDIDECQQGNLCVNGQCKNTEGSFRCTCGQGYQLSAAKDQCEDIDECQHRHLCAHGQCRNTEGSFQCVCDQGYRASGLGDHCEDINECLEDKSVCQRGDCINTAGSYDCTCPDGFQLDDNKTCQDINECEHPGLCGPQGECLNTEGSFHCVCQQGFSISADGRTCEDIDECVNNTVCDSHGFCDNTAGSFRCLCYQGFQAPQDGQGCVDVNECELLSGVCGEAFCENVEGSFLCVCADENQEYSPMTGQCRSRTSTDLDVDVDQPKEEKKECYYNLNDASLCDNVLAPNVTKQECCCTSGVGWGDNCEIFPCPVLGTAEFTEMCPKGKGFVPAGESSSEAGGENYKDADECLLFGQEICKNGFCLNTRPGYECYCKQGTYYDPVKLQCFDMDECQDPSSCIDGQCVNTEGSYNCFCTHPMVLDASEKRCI
T2 sequence (chain, as listed by the source limits assumed, chain 2 of 2): as the sequence (chain, as listed by the source limits assumed, chain 2 of 2) above
T1 sequence (P01137 other isoform, or with tags, fused parts or gaps): as the sequence (chain, as listed by the source limits assumed, chain 2 of 2) above, with C4S counted along it

B1: Ab6 (antibody, human IgG4 S228P, kappa, V domains shown)
VH: EVQLVESGGGLVQPGGSLRLSCTASGFTFSSFSMDWVRQAPGKGLEWVSYISPSADTIYYADSVKGRFTISRDNAKNTLYLQMNSLRAEDTAVYYCARGVLDYGDMLMPWGQGTLVTVSS
VL: DIQMTQSPSSLSASVGDRVTITCQASQDITNYLNWYQQKPGKAPKLLIYDASNLETGVPSRFSGSGSGTDFTFTISSLQPEDIATYYCQQADNHPPWTFGGGTKVEIKR
Take B1: the binding result in [1] is “binds”; in assay [17] it was “no binding”; in [18], “no binding”. In addition, the Kd in assay [2] was 0.018 nM; in assay [3], 0.029 nM; in [4], 0.027 nM; in assay [5] it was 0.063 nM; in [6], 0.018 nM; in [7], 0.029 nM. The Kd in [8] was found to be 0.027 nM; in assay [9] it was 0.063 nM; in assay [10], 0.024 nM; in assay [11], 0.021 nM; in assay [12], 0.048 nM; in assay [13] it was 0.035 nM. Moreover, the Kd in assay [14] is 0.086 nM; in [15] it was 0.039 nM; in assay [16], 0.093 nM.

(Values after patent US20220064275A1 (SCHOLAR ROCK, published 2022).)
